Molecular target: HLA-A*0201 (human), A*02:0
Assay: REVEAL MHC binding assay (ProImmune)

Question: For FLYGVILTV (modifications not checked) [Peptide ID 131 … (TCR_TV, modified peptide)], which % Pass/fail control (% of pass/fail control) is on record?
Answer: 257

From patent US20110142842A1, “POLYPEPTIDES” (Medinnova AS, priority 2007, published 2011)
